According to the supplement of paper PMC9112550, “Optimization of the antimicrobial peptide Bac7 by deep mutational scanning” (BMC Biology, 2022):

Each sequence was assayed on Escherichia coli TOP10 (assay: shrunken log2 fold change of peptide-encoding DNA abundance (4.5 h post-induction vs induction); higher = less antimicrobial activity (less host growth inhibition)). Details: time post-induction: 4.5 h; library: site-saturation at positions 5, 18, 19, 20.
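Further: peptides expressed intracellularly from a pBAD plasmid library in pooled LB shake-flask culture, induced with 0.3% L-arabinose, DNA abundance read by NGS, three biological replicates, DESeq2 with apeglm shrinkage.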

In order of falling “shrunken log2 fold change” value:
1. RRIRARPPRLPRPRPRPEEAPRP  3.84
2. RRIRRRPPRLPRPRPRPELEPRP  1.16
3. RRIRWRPPRLPRPRPRPMRDPRP  0.814
4. RRIRRRPPRLPRPRPRPTVFPRP  0.721
5. RRIRLRPPRLPRPRPRPTPGPRP  0.557
6. RRIRQRPPRLPRPRPRPMWVPRP  0.551
7. RRIRDRPPRLPRPRPRPETQPRP  0.476
8. RRIRGRPPRLPRPRPRPQIEPRP  0.462
9. RRIRVRPPRLPRPRPRPTWPPRP  0.446
10. RRIRKRPPRLPRPRPRPMRQPRP  0.384
11. RRIRDRPPRLPRPRPRPRQWPRP  0.36
12. RRIRFRPPRLPRPRPRPTTPPRP  0.352
13. RRIRCRPPRLPRPRPRPVRVPRP  0.272
14. RRIRTRPPRLPRPRPRPPRKPRP  0.25
15. RRIRRRPPRLPRPRPRPTKMPRP  0.248
16. RRIRNRPPRLPRPRPRPEGVPRP  0.205
17. RRIRARPPRLPRPRPRPFFCPRP  0.2
18. RRIRNRPPRLPRPRPRPIHDPRP  0.177
19. RRIRKRPPRLPRPRPRPKIPPRP  0.174
20. RRIRARPPRLPRPRPRPSPMPRP  0.173
21. RRIRDRPPRLPRPRPRPVWCPRP  0.162
22. RRIRGRPPRLPRPRPRPMQEPRP  0.161
23. RRIRPRPPRLPRPRPRPCAPPRP  0.159
24. RRIRVRPPRLPRPRPRPMLQPRP  0.154
25. RRIRRRPPRLPRPRPRPCCFPRP  0.151
26. RRIRTRPPRLPRPRPRPTPLPRP  0.147
27. RRIRLRPPRLPRPRPRPTMGPRP  0.147
28. RRIRDRPPRLPRPRPRPAPNPRP  0.138
29. RRIRVRPPRLPRPRPRPTQWPRP  0.12
30. RRIRCRPPRLPRPRPRPRAIPRP  0.0982
31. RRIRFRPPRLPRPRPRPRFTPRP  0.0956
32. RRIRHRPPRLPRPRPRPEPCPRP  0.0696
33. RRIRKRPPRLPRPRPRPCDAPRP  0.0682
34. RRIRLRPPRLPRPRPRPDYCPRP  0.0561
35. RRIRGRPPRLPRPRPRPHNDPRP  0.0426
36. RRIRSRPPRLPRPRPRPWSFPRP  0.0324
37. RRIRVRPPRLPRPRPRPKCIPRP  0.0104
38. RRIRMRPPRLPRPRPRPGEKPRP  0.00581
39. RRIRFRPPRLPRPRPRPWQGPRP  0.00425
40. RRIRFRPPRLPRPRPRPVTDPRP  0.00378
41. RRIRHRPPRLPRPRPRPGEFPRP  -0.00759
42. RRIRIRPPRLPRPRPRPQAVPRP  -0.0119
43. RRIRPRPPRLPRPRPRPMQAPRP  -0.0135
44. RRIRVRPPRLPRPRPRPSHTPRP  -0.0229
45. RRIRMRPPRLPRPRPRPCTWPRP  -0.0287
46. RRIRPRPPRLPRPRPRPNRLPRP  -0.0308
47. RRIRVRPPRLPRPRPRPVQEPRP  -0.0375
48. RRIRERPPRLPRPRPRPYSFPRP  -0.0431
49. RRIRHRPPRLPRPRPRPYESPRP  -0.0531
50. RRIRARPPRLPRPRPRPKGDPRP  -0.07
51. RRIRHRPPRLPRPRPRPKCTPRP  -0.0702
52. RRIRWRPPRLPRPRPRPNCYPRP  -0.0773
53. RRIRARPPRLPRPRPRPSDYPRP  -0.108
54. RRIRTRPPRLPRPRPRPWMDPRP  -0.13
55. RRIRPRPPRLPRPRPRPTYPPRP  -0.137
56. RRIRERPPRLPRPRPRPAQVPRP  -0.149
57. RRIRCRPPRLPRPRPRPHEQPRP  -0.15
58. RRIRPRPPRLPRPRPRPEGHPRP  -0.16
59. RRIRDRPPRLPRPRPRPHLEPRP  -0.169
60. RRIRKRPPRLPRPRPRPWCKPRP  -0.188
61. RRIRQRPPRLPRPRPRPAVCPRP  -0.197
62. RRIRYRPPRLPRPRPRPDLKPRP  -0.21
63. RRIRNRPPRLPRPRPRPCLCPRP  -0.275
64. RRIRYRPPRLPRPRPRPGGMPRP  -0.297
65. RRIRNRPPRLPRPRPRPHMQPRP  -0.304
66. RRIRRRPPRLPRPRPRPIDNPRP  -0.349
67. RRIRLRPPRLPRPRPRPWFHPRP  -0.352
68. RRIRTRPPRLPRPRPRPLNCPRP  -0.405
69. RRIRCRPPRLPRPRPRPYNVPRP  -0.434
70. RRIRQRPPRLPRPRPRPNYIPRP  -0.445
71. RRIRCRPPRLPRPRPRPHNCPRP  -0.491
72. RRIRTRPPRLPRPRPRPYWFPRP  -0.535
73. RRIRNRPPRLPRPRPRPLWMPRP  -0.587
74. RRIRWRPPRLPRPRPRPWKYPRP  -0.679
75. RRIRNRPPRLPRPRPRPCFIPRP  -0.86
